Measured values: the DeepSol protein solubility set

Assay: soluble on expression in E. coli; label from the status in PepcDB or PDB records

| Sequence | soluble on expression in E. coli |
| --- | --- |
| MGSDKIHHHHHHCVRVPTLMIVPEAAQSGVAETVFVASNRVFANGQFQSARQDDVTYTRFTVQIPQDRDAGAVRPGRARRTGPNLRTDFVASDGVHLGGEGRFQSELLAEARRRGTSEVMVFIHGFASSIGTGIYRTAQIRYDFEVPGVAVHYAWPSSGSYIGYAYDRDSALFARDGLEELITGIMQTDLDVVLVAHSLGSSVVMEVLRQLRIAGRNALIDRIHGVILFSPDLDVDVFRSQASRIGDLPQPFVIFTSQRDQALTFSSIMAGRTARVGNLATADQVAEFDVTLIDVSAFEGGVRDRLNHFAGATSQSAVQILRDAAQINSAFEDGPDARPGLLPGTILTIQNATLVLLDPEHAR | not soluble |
| MAHHHHHHMFTKFLSRVKAMPPRSGDWANKLGPVALMGCSVGAHMSSTKLLNHFYTSSRDCDMYAELTFHEPGPVECPPETVIFFPVIQCGEMLDEKGEPSEATKDDWYLAMTESTTELLEKGYVPVSVGGDGSATLAMVEAYKRLFRSSEVVLIHCSARPSLEKAEQPIRVLLEKDLLKGVVEIGNRCVSSGDRKIRKQHKVMYMDMQAIYAKGLFCIRDIRNDYPVFLSIDADVLDPAFAPGVESPVPGGFSTRDLLHIMTGIRGPKVAGIDIHGYHPSLDMCRSDGVGLTQMALTKVLKESIVKAYTISTQTAEEGLERVRLMQRQGTLSDNPYPDH | not soluble |
| MAKKTSSKGKLPPGPFPLPIIGNLFQLELKNIPKSFTRLAQRFGPVFTLYVGSQRMVVMHGYKAVKEALLDYKDEFSGRGDLPAFHAHRDRGIIFNNGPTWKDIRRFSLTTLRNYGMGKQGNESRIQREAHFLLEALRKTQGQPFDPTFLIGCAPCNVIADILFRKHFDYNDEKFLRLMYLFNENFHLLSTPWLQLYNNFPSFLHYLPGSHRKVIKNVAEVKEYVSERVKEHHQSLDPNCPRDLTDCLLVEMEKEKHSAERLYTMDGITVTVADLFFAGTETTSTTLRYGLLILMKYPEIEEKLHEEIDRVIGPSRIPAIKDRQEMPYMDAVVHEIQRFITLVPSNLPHEATRDTIFRGYLIPKGTVVVPTLDSVLYDNQEFPDPEKFKPEHFLNENGKFKYSDYFKPFSTGKRVCAGEGLARMELFLLLCAILQHFNLKPLVDPKDIDLSPIHIGFGCIPPRYKLCVIPRSHHHH | soluble |
| MGSDKIHHHHHHMRRLFTSESVTEGHPDKIADQISDAILDAMLEQDPRSRVAVETLVTTGLVIIAGEVTTRAYVEIPDIARKTILEIGYTRAKYGFDGETCGVLTSIHSQSPDIALGVDKALEVKTGEEVADEFEALGAGDQGIMFGYATNETPEYMPLPITLAHKLAMRLAEVRKNGTLPFLRPDGKTQVTIEYEDDKPVRVDTVLISTQHDPDISQADLREAIIEHVINPVIPEQYRDDKMKILVNPTGRFVLGGPMADTGLTGRKIIVDTYGGWVPHGGGAFSGKDPTKVDRSAHYMARYVAKNVVAAGLADKFLIQLSYAIGVAKPVSIMIDTYGTAKVDEDKLLKVITELFDFRPGAIIKKLNLLRPIYRKTAAYGHFGRNEEEFTWEKLDMVDELKRAFNM | not soluble |
| MTKQVKIYHNPRCSKSRETLNLLKENGVEPEVVLYLETPADAATLRDLLKILGMNSARELMRQKEDLYKELNLADSSLSEEALIQAMVDNPKLMERPIVVANGKARIGRPPEQVLEIVG | not soluble |
| MEGTMTCIYESVITGVGSEVQYFIEENMVVIFNDTVPDDLKSIGVIHKHTELQADVAAGDVLEVNGACFRILFVGDKVNDTLREIGHCTIAFNGETNADLPGTLCVEKKPLPDFVTGATIKFIKE | not soluble |
| MIMKNGIVYFVGAGPGDPGLLTIKGKQALKEADVILYDRLANPKLLEFASPDCQFIYCGKLPNRHFMKQKEINALLVEKALNGLTVVRLKGGDPSVFGRVGEEADALHEHGIRYEMVPGITSGIAAPLYAGIPVTHRDFASSFAMITAHDKSLKGTPNLDWEGLARSVQTLVFYMGVKNLSYICQQLISYGKSPSVPVIVIQWGTWGRQRSVKGTLENIQQKVQEHQITNPAIIVIGDIVNFQTHSWFESKPLIGRHLMVVTHGEDEDPLADKLRDSGADLIEWPKWRTENMPVNEEILRKIGTFEDVFFTSRRAVCEFFRALASQKIDIRQLTAKLSAASEQAKTELEKRGFLVTAIQPDSEKRLVVGSRHAVENMQKHESCSFYITHENVIDDRFTHMIQRTISESPLHMVICPNKLSVQQLINGGEQIGILPEPSASRPPIVCIGDDSAAGIYGFTAVQEQDELLAFIHNQHAEKKLL | not soluble |
| MPQDPRHPEHQYLDLVKHILENGARRMDRTGTGTLSVFGATMRFSLEDNTFPLLTTRRVFYRGVVEELLFFLRGETDSKVLEKKGVRIWEKNGAKQFLQSVGIDREEGDLGPIYGFQWRHFGARYETSASSYEGKGVDQIASAIAAIRANPASRRIVVSAWNPTDLGSMALPPCHVLFQFNVTDGKLSCAMYQRSGDMGLGVPFNIASYSLLTILVAHLTGLQPGEFVHFLGDAHVYLDHVDSLRQQIQRPPRAFPKLFVSPKGPRTEPEHFQYEDFELVGYDPHPAIKMNMSA | soluble |
| MGSDKIHHHHHHMLEREGIEISLRTIQRDLNQIAQRFPIESNKAVPQGWRWQSDAPIQSLPHMTSSQAVTFMMVEEHLKHLLPPSLLDEMGPWFDLAKRSLSTQNNVRQWINRVRIVPASQPLIPPVVDRAAQQAIYEGLLQDKQIECVYRARVNQGEDKTYILNPLALVQKGAVIYLICTRHDKTEVQTFALHRFKSAKVLESRALHPVNFDIDHYIDSGALGFRVDYNQPTESIQLTLTMTEQTAKTFYESQLSKDQTITPIEENIVEVTATVPFTSQLVWWLRSFGKKLLHIEPVQVHNAVREIEPDSK | not soluble |
| MPASEDYEGQVPAWCPGCGNFQILSTIKQALAELGIEPREVLLVSGIGQAGKLPHYIKCHTFNGLHGRTLPVATAAKLANHSLHVIAVAGDGDCYAEGGNHFLHAIRRNPNISLFVHNNQIYGLTKGQASPTSAKGTHTPAQPFGYLAHPFNPLALAISQDCSFVARGFAGDQEHLKELIKAAITHRGFSLLDILQPCVTFNKVNTFKWYRERVYRLESDYDPYNQTKAFEKALEWGDKIPNGIFYKSDKETLEEMMPTLHEMPLVRKKFSPEDVKHEIEKFY | not soluble |
| MAHHHHHHMKGSNTVHTREANANEVHASRQDMRAALLPSDTRILVSRIPASAVSVVSDETRAKGRRRCLVTRTLRRCPEMMSHRRGGHAALVSLLLPLTSHRFCVSPSHVLSIASCAFPCTHSCCVQQGVHPSHLPACLPACRRPRACFVSALCRAHEHAVMFSYNNIIEKGEPLNKEIIDHVLDHVTEFPTPTMVSVGDGKADCIVLENFLTHEECDQLVAACEKVGYTFWLQKNHHDADGEATCDSGSKAVRVVDTIEANFPHLSAKLYERIARVVSLKPKCFSEDMPNAEELFERELAGTWVPHALSENLLFGRYHPGGHFMPHVDGATILDLNTRSFYTLLIYLNDCLHGGETFIFAGEQCNVMYLDEKENQYRGNATQRVGAVYPKKGSAAFFYYNLLHEGAPVLEGHKYICRADLLYHRTPTIFTSEADEKAFKAYQEARLAESHGDAERACQLFQRVRKLSKGVASIFQIE | not soluble |
| MDHDKLEANLLDHALTKYLKSTKQLDEATVPKHVNNVRGFILRIIYRHGSCTIKDILKEVTLSPSATTTALNHLEQEGFIERSRNNNDRRTVWITLSESGRGAAEQMIENRQQLIDGMFERLTAEEKKTFLAIIAKLAQ | not soluble |
| MNNKLTPVSPGEMLAEEFLIPLGMSNYRLAKEIGVSAQRIGEIVTGKRAITVDTDLRLCRFFGLSDGWWLRLQVDYDIEMARGALEETLAKIRPWANTQEHGTPA | not soluble |
| MSKKCLITGGAGFIGSHLAEELVGRGYNVTIVDNFYKGKNKYHDELMKEIRVIPISVLDKNSIYELVNQHDVVFHLAAILGVKTTMEKSIELIETNFDGTRNILQAALKGKKKVVFASTSEVYGKAKPPFSEEGDRLYGATSKIRWSYAICKTLEETLCLGYALEGLPVTIVRYFNIYGPRAKDGPYAGVIPRFISAALQGEDILVYGDGEQTRCFTYVSDAVEATIRAMDEKVNGEIINIGSENEKSIKEVAEVIKKLTDSSSKIVQVPFEEVYPHGFEEIPNRRPDVTKLKDLVQFQAKVTWEDGLKETIKWFREEDNG | soluble |
| MSGTKVPSLPKGKEKPCVVTFATQSDRSNEPPPQPRVRKVTTIINTLGVVVRNTTTEIGVWVFTSCVEVSFPRSNSPIFSNFTLGTWMIVGLYPDATVASCSPWPLILKAYEMSVSYGTVFMKRKASELCHEKTVLYSEVVVPLVNPYSNMSYFERDPHLTAELYMIPGFGRVLGSSAYRQYLEDNRDNVSFIVQYCGGSLRGCSWIMSVVDGKAQTDGEFSDKDLREIAEFIRERHNKENESPPLPSNSIARHAGFVTEVFPQKNYLYCWSPQVSLEADHTAKFPQPPKHREVDSPMLSPLVGQWIQFDVQSKDLDKYMSTRSGYRLSIQEYLPINSPCGVGVVQCGKIVRVMISCILVKSTDHPMLFELQMFGPVIDKKSSLISGAFMQIVLEKTSSRIRRMSGVCWRVIYSLIVSGAENMVENSQSVRIEAISQRDAMETSHIIPIEKRTITNNTGVTTLKYQQPHQNPHYQEQRRDYYMGNNIQIQTAYNSTQLRKYQPKPKKFSSYTGESLEGHALVEKIMAHAKTGILWFFDNYNSSVHFIFDDFELNVGDYAYVKLIQKKEETAHLQFRWKWISGTKKLSPFNCRIDLFQLFIEEQVSYKSKDMLNRNTYTSKNFPIIFDADGIIKNPIPGAIYCVVILRKKIQVTQTESPTHKYQWIIDSAQSNPFIITEYYNPHNAFNRSFIASKQFSSSAALSTDSKKGSSGSEKSSTSPPLKSLTPPSDE | not soluble |
| MGSDKIHHHHHHMALMTNKTRALLIGGHGKVALLATPMLIDASVQVTSMYRNPDHRSEIEALGATTLERDVTTLSVEDWADLLKDFDVVVWSAGNGGKNGADATYAIDRDAAIASIDGAASLGEKAPRYIMVSYIGSSTHTIDPSASFYPYAESKKAADEHLSSTNLDYLILAPAALTLDEVNGVEVIADTNEAAAGRTTSRVLVAEVITEFVVRDFPQTRVLPFVDGESPVSSIS | not soluble |
| RIEDIETKNIQYEERVSVQADLGSQTLHVRGLIDSGNQLYDPLTKTPVMIIYIDKLEPIFGTAETMIIRNTDPLEAIEQLDDSFRFLDKMRLIPYRGVGQQNQFLLCVKPDHVTIMTKEEMISADKCLIGISTTKLSADGEFDAIIHPKMLSGKAVKHVS | soluble |
| AYDIISDIHGCYDEMTALIQKLGYTIKNGVPVHEEGRVLVFAGDLTDRGPKSIEVIRFVAGAYEKGAVRYVPGNHCNKLYRYLKGNPVKVMHGLETTAAELEELSKDEKKSVSEQFMKLYETAPLYDILHNGELVVAHAGIRADDIGKYTRRVKDFVLYGDVTGETYPDGRPIRRDWAAAYNGKAWVVYGHTPVKEPRKVNRTINIDTGCVFGNQLTGFRFPEIETVSVPSSLPYDESRFRP | not soluble |
| MSVRATVVKRTISGGKGKISEYCDGTKAVFHYQALFPIEKHEKGQPLSLEKDAFKSIDDTRKPWPHGYGKPLEIVFGKKFQLPVFEQCLKTMLVDEISQFDVECIDLVQYPFVSKKLRDLVKPCDGKHSHAHTTHMCAASIAQGTGYEELDELMKNPRPLRFVFHLLQVFEPDQYVHDSWQLDEDDKLKSVEALRQKGNELFVQKDYKEAIDAYRDALTRLDTLILREKPGEPEWVELDRKNIPLYANMSQCYLNIGDLHEAEETSSEVLKREETNEKALFRRAKARIAAWKLDEAEEDLKLLLRNHPAAASVVAREMKIVTERRAEKKADSRVTYSKMFQP | not soluble |
| MGSDKIHHHHHHMAEAGTLAVLVPEITIEELFTAQGADLSRRSPRQDMVDLNIKLLAEARELAKVSIIWQEVKVLGSQQQELYLEGGLTLRGSLLPKVLGPAESAVLFAMTIGEGIDERVKEYTHQGKTLEAFILDAAGSAILAKAAYHAISELAGLYKEKQLDTTFSLGPGHSYWKGLEDVRTIIDYLKGEQIGISLTDSNLMLPKKSIAMVMGVGSNLPDFKGKTHCDFCHLKGSCTMRELGVNNC | not soluble |
